In paper PMC4355236 one finds Kd data, which are given here for one molecule.

The target of the series is T1, POT1 (Homo sapiens, UniProt Q9NUX5 1-634).
T1 sequence: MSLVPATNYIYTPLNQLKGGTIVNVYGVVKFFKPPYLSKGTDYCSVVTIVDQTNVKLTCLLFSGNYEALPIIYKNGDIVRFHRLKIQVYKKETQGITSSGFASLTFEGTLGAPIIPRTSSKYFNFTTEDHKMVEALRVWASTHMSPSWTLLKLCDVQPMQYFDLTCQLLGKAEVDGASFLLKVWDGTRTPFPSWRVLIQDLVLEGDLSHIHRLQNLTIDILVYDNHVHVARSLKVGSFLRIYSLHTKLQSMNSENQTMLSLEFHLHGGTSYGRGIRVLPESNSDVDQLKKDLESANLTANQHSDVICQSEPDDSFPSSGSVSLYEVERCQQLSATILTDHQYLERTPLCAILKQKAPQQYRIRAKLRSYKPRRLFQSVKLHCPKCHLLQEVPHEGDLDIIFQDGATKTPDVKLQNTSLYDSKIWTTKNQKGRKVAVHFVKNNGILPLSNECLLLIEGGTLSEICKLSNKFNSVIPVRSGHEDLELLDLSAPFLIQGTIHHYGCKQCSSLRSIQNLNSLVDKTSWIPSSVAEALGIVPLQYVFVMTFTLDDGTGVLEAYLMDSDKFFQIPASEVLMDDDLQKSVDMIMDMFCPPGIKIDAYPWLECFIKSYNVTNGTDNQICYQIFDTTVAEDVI
The series is described as follows: EMSA. A general note: Mobility shift assays separate free from complexed probe on a gel.

For orientation: Kd means the concentration at which binding is half-saturated.

TTAGGGTTAGCGTTAGGGTT (ssDNA) [primer a5TT] returned a Kd of 50 nM.
